Assay results reported in article PMC12860359 (2025).
Numbering of substitutions follows the chain as printed.

Legend:
MBP-HA Rap1B WT [1] = biological target: T1, MBP-HA Rap1B WT (human, UniProt P61224-1 1-184); experiment: BLI; GTPγS-bound Rap1B
T1 chain: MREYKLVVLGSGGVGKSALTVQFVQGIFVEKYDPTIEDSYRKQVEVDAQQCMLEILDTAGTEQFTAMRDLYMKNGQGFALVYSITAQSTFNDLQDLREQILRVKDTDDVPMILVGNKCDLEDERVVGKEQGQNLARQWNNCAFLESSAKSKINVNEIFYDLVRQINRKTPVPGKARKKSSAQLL

MBP-HA Rap1B WT [2] = biological target: T1, MBP-HA Rap1B WT; experiment: BLI; GDP-bound Rap1B
MBP-HA Rap1B WT [3] = biological target: T1, MBP-HA Rap1B WT; experiment: BLI; GTPγS-bound Rap1B

B1: VHH-hFcS A47 (Fc fusion)
chain: EVQLQASGGGFVQPGGSLRLSCAASGFTSKNTIMGWFRQAPGKEREFVSAISSAPGYWEYYADSVKGRFTISRDNSKNTVYLQMNSLRAEDTATYYCAAPINQAPGRPIRSDQYWGQGTQVTVSS
B1 was tested, and the koff (MBP-HA Rap1B WT [1]) was 0.000574 s⁻¹ and the Kd (MBP-HA Rap1B WT [2]) was 722 nM.

B2: VHH-hFcS B89 (Fc fusion)
chain: B1 chain with S111W
Work on B2 yielded a Kd (MBP-HA Rap1B WT [2]) of 20.2 nM.

B3: VHH-hFcS B14 (Fc fusion)
chain: B1 chain with F37Y, F47L
Work on B3 yielded a koff (MBP-HA Rap1B WT [1]) of 0.00104 s⁻¹, a Kd (MBP-HA Rap1B WT [2]) of 295 nM and a Kd (MBP-HA Rap1B WT [3]) of 25.8 nM.
